Here are results for one substance from PMC3604133.

This assay addresses Aβ40-S26C (synthetic human Aβ1-40 in which Ser26 was changed to cysteine) (human). The assay can be described thus: SEC.

“Aβ40-S26C (synthetic human Aβ1-40 in which Ser26 was changed to cysteine) (peptide)” came in with a stoichiometry N of 2.
